The test system of this data set is Escherichia coli TOP10. Kind of data set: shrunken log2 fold change of peptide-encoding DNA abundance (4.5 h post-induction vs induction); higher = less antimicrobial activity (less host growth inhibition). As to conditions: time post-induction: 4.5 h; library: site-saturation at positions 5, 18, 19, 20.
On to RRIRGRPPRLPRPRPRPWWMPRP, for which the “shrunken log2 fold change” value turned out to be 0.322.

Consider RRIRGRPPRLPRPRPRPKTWPRP, for which the “shrunken log2 fold change” value came out at 0.155.

Take RRIRCRPPRLPRPRPRPMFPPRP: the “shrunken log2 fold change” value was -0.511.

As to RRIRRRPPRLPRPRPRPCVKPRP, the “shrunken log2 fold change” value stood at 0.252.

Consider RRIRKRPPRLPRPRPRPDGCPRP, for which the “shrunken log2 fold change” value was determined as 0.14.

Turning to RRIRMRPPRLPRPRPRPQQSPRP, the “shrunken log2 fold change” value worked out at 0.0524.

For RRIRSRPPRLPRPRPRPFNHPRP, the “shrunken log2 fold change” value is -1.19.

For the sequence RRIRTRPPRLPRPRPRPNWFPRP, the “shrunken log2 fold change” value was -0.157.

For RRIRDRPPRLPRPRPRPAKVPRP, the “shrunken log2 fold change” value was 0.114.

RRIRHRPPRLPRPRPRPSCAPRP: the “shrunken log2 fold change” value turned out to be 0.137.

RRIRYRPPRLPRPRPRPTPHPRP: the “shrunken log2 fold change” value was -0.181.

As for RRIRCRPPRLPRPRPRPSSIPRP, the “shrunken log2 fold change” value is -0.565.

Take RRIRRRPPRLPRPRPRPSCHPRP: the “shrunken log2 fold change” value was -0.0344.

For the sequence RRIRGRPPRLPRPRPRPENQPRP, the “shrunken log2 fold change” value was 0.534.

For RRIRMRPPRLPRPRPRPSKEPRP, the “shrunken log2 fold change” value is 0.203.

As to RRIRVRPPRLPRPRPRPEWGPRP, the “shrunken log2 fold change” value is 2.29.

RRIRERPPRLPRPRPRPAGEPRP: the “shrunken log2 fold change” value was 0.0657.

Take RRIRNRPPRLPRPRPRPCDKPRP: the “shrunken log2 fold change” value is 0.14.

For the sequence RRIRFRPPRLPRPRPRPLCGPRP, the “shrunken log2 fold change” value is -0.154.

For RRIRQRPPRLPRPRPRPKGAPRP, the “shrunken log2 fold change” value came out at 0.0159.

Take RRIRARPPRLPRPRPRPGMVPRP: the “shrunken log2 fold change” value is 0.509.

On to RRIRFRPPRLPRPRPRPDHLPRP, for which the “shrunken log2 fold change” value is -0.00942.

For RRIRCRPPRLPRPRPRPGCWPRP, the “shrunken log2 fold change” value is 0.569.

In the case of RRIRSRPPRLPRPRPRPFINPRP, the “shrunken log2 fold change” value was -0.639.

Take RRIRCRPPRLPRPRPRPEIYPRP: the “shrunken log2 fold change” value is -0.0456.

Consider RRIRQRPPRLPRPRPRPLWWPRP, for which the “shrunken log2 fold change” value came out at 0.121.

Turning to RRIRDRPPRLPRPRPRPHELPRP, the “shrunken log2 fold change” value was -0.124.

In the case of RRIRIRPPRLPRPRPRPENTPRP, the “shrunken log2 fold change” value was -0.397.

With RRIRRRPPRLPRPRPRPSQIPRP, the “shrunken log2 fold change” value amounted to 0.092.

As for RRIRIRPPRLPRPRPRPHCKPRP, the “shrunken log2 fold change” value is -0.147.

RRIRIRPPRLPRPRPRPATGPRP: the “shrunken log2 fold change” value was -0.119.

RRIRMRPPRLPRPRPRPQNPPRP: the “shrunken log2 fold change” value turned out to be 0.26.

In the case of RRIRARPPRLPRPRPRPLQHPRP, the “shrunken log2 fold change” value worked out at 1.22.

As for RRIRNRPPRLPRPRPRPWRKPRP, the “shrunken log2 fold change” value is -0.0392.

Take RRIRTRPPRLPRPRPRPDEMPRP: the “shrunken log2 fold change” value was -0.023.

For RRIRKRPPRLPRPRPRPVKTPRP, the “shrunken log2 fold change” value stood at 0.141.

Take RRIRPRPPRLPRPRPRPAGAPRP: the “shrunken log2 fold change” value was determined as 0.309.

As for RRIRERPPRLPRPRPRPMPAPRP, the “shrunken log2 fold change” value is -0.0153.

For RRIRLRPPRLPRPRPRPNMCPRP, the “shrunken log2 fold change” value came to 0.0102.

For RRIRTRPPRLPRPRPRPVGLPRP, the “shrunken log2 fold change” value is -0.00734.

Consider RRIRTRPPRLPRPRPRPNWDPRP, for which the “shrunken log2 fold change” value turned out to be 0.00303.

Turning to RRIRIRPPRLPRPRPRPGCHPRP, the “shrunken log2 fold change” value was -0.602.

Take RRIRDRPPRLPRPRPRPIPTPRP: the “shrunken log2 fold change” value stood at 0.00396.

On to RRIRDRPPRLPRPRPRPHQEPRP, for which the “shrunken log2 fold change” value is -0.281.

For the sequence RRIRPRPPRLPRPRPRPNMRPRP, the “shrunken log2 fold change” value came out at 0.272.

As for RRIRPRPPRLPRPRPRPIQEPRP, the “shrunken log2 fold change” value is -0.019.

Turning to RRIRGRPPRLPRPRPRPMQPPRP, the “shrunken log2 fold change” value was determined as 1.77.

Regarding RRIRFRPPRLPRPRPRPVDVPRP, the “shrunken log2 fold change” value is -0.44.

On to RRIRIRPPRLPRPRPRPSMNPRP, for which the “shrunken log2 fold change” value is -0.717.

RRIRHRPPRLPRPRPRPTIKPRP: the “shrunken log2 fold change” value is -0.304.

Take RRIRGRPPRLPRPRPRPWFFPRP: the “shrunken log2 fold change” value came to 0.169.

On to RRIRHRPPRLPRPRPRPNVKPRP, for which the “shrunken log2 fold change” value is -0.112.

In the case of RRIRNRPPRLPRPRPRPLNVPRP, the “shrunken log2 fold change” value is -0.0912.

RRIRSRPPRLPRPRPRPKRAPRP: the “shrunken log2 fold change” value is 0.326.

On to RRIRWRPPRLPRPRPRPHLQPRP, for which the “shrunken log2 fold change” value was found to be 0.103.

Take RRIRRRPPRLPRPRPRPLEQPRP: the “shrunken log2 fold change” value was found to be 0.166.

With RRIRHRPPRLPRPRPRPCYVPRP, the “shrunken log2 fold change” value was -1.53.

Consider RRIRVRPPRLPRPRPRPPFKPRP, for which the “shrunken log2 fold change” value amounted to 0.163.

As to RRIRDRPPRLPRPRPRPVPVPRP, the “shrunken log2 fold change” value is -0.346.

Turning to RRIRKRPPRLPRPRPRPDRVPRP, the “shrunken log2 fold change” value was -0.00884.

For the sequence RRIRFRPPRLPRPRPRPYGRPRP, the “shrunken log2 fold change” value is -0.0926.

Regarding RRIRMRPPRLPRPRPRPGILPRP, the “shrunken log2 fold change” value amounted to 0.0644.

Regarding RRIRVRPPRLPRPRPRPHVHPRP, the “shrunken log2 fold change” value was -0.45.

Regarding RRIRHRPPRLPRPRPRPGDTPRP, the “shrunken log2 fold change” value was -0.0174.

Turning to RRIRHRPPRLPRPRPRPEQSPRP, the “shrunken log2 fold change” value is -0.0805.

For the sequence RRIRPRPPRLPRPRPRPSTIPRP, the “shrunken log2 fold change” value is -0.552.

For RRIRFRPPRLPRPRPRPVGHPRP, the “shrunken log2 fold change” value was -0.0219.

In the case of RRIRWRPPRLPRPRPRPMNSPRP, the “shrunken log2 fold change” value was -0.0812.

Turning to RRIRRRPPRLPRPRPRPRGEPRP, the “shrunken log2 fold change” value turned out to be 0.739.

Consider RRIRIRPPRLPRPRPRPSSFPRP, for which the “shrunken log2 fold change” value was -0.711.

As for RRIRIRPPRLPRPRPRPALHPRP, the “shrunken log2 fold change” value is -0.268.

Turning to RRIRVRPPRLPRPRPRPKMSPRP, the “shrunken log2 fold change” value is -0.122.

Regarding RRIRVRPPRLPRPRPRPACLPRP, the “shrunken log2 fold change” value was -0.444.

For RRIRNRPPRLPRPRPRPASRPRP, the “shrunken log2 fold change” value was found to be 0.12.

As to RRIRRRPPRLPRPRPRPIWSPRP, the “shrunken log2 fold change” value is -0.000832.

As for RRIRKRPPRLPRPRPRPMWNPRP, the “shrunken log2 fold change” value was found to be 0.232.

Consider RRIRFRPPRLPRPRPRPYTVPRP, for which the “shrunken log2 fold change” value was -0.00354.

As to RRIRCRPPRLPRPRPRPHPNPRP, the “shrunken log2 fold change” value was -0.186.

Consider RRIRTRPPRLPRPRPRPYHFPRP, for which the “shrunken log2 fold change” value was -0.28.

As for RRIRLRPPRLPRPRPRPIFPPRP, the “shrunken log2 fold change” value is 0.0478.

Take RRIRCRPPRLPRPRPRPKFIPRP: the “shrunken log2 fold change” value is -0.653.

In the case of RRIRMRPPRLPRPRPRPMFVPRP, the “shrunken log2 fold change” value was -0.298.

Consider RRIRQRPPRLPRPRPRPWHWPRP, for which the “shrunken log2 fold change” value was 0.107.

With RRIRRRPPRLPRPRPRPKLNPRP, the “shrunken log2 fold change” value is 0.101.

As for RRIRRRPPRLPRPRPRPCTCPRP, the “shrunken log2 fold change” value was -0.111.

As for RRIRSRPPRLPRPRPRPFPTPRP, the “shrunken log2 fold change” value is -0.101.

RRIRPRPPRLPRPRPRPNGRPRP: the “shrunken log2 fold change” value was -0.00968.

Take RRIRVRPPRLPRPRPRPALHPRP: the “shrunken log2 fold change” value turned out to be 0.202.

Consider RRIRCRPPRLPRPRPRPGNDPRP, for which the “shrunken log2 fold change” value is 0.00582.

Regarding RRIRGRPPRLPRPRPRPVEVPRP, the “shrunken log2 fold change” value was determined as 1.03.

Consider RRIRLRPPRLPRPRPRPMVLPRP, for which the “shrunken log2 fold change” value is -0.239.

Consider RRIRQRPPRLPRPRPRPNLIPRP, for which the “shrunken log2 fold change” value is -0.556.

For the sequence RRIRWRPPRLPRPRPRPQILPRP, the “shrunken log2 fold change” value was -0.164.

For the sequence RRIRGRPPRLPRPRPRPAAIPRP, the “shrunken log2 fold change” value was 0.953.

As to RRIRRRPPRLPRPRPRPNMTPRP, the “shrunken log2 fold change” value is -0.136.

As to RRIRSRPPRLPRPRPRPNQKPRP, the “shrunken log2 fold change” value is -0.162.

RRIRTRPPRLPRPRPRPCRIPRP: the “shrunken log2 fold change” value was -0.0965.

On to RRIRLRPPRLPRPRPRPKRKPRP, for which the “shrunken log2 fold change” value was -0.314.

For RRIRMRPPRLPRPRPRPDTVPRP, the “shrunken log2 fold change” value worked out at 0.00533.

For RRIRERPPRLPRPRPRPFIQPRP, the “shrunken log2 fold change” value was -0.176.

For the sequence RRIRSRPPRLPRPRPRPYPTPRP, the “shrunken log2 fold change” value was -0.234.

For RRIRSRPPRLPRPRPRPRAQPRP, the “shrunken log2 fold change” value came to 0.106.

Regarding RRIRNRPPRLPRPRPRPTRTPRP, the “shrunken log2 fold change” value is 0.211.

Take RRIRYRPPRLPRPRPRPHVHPRP: the “shrunken log2 fold change” value is -0.00398.

On to RRIRVRPPRLPRPRPRPMYAPRP, for which the “shrunken log2 fold change” value is -0.17.

On to RRIRCRPPRLPRPRPRPHQAPRP, for which the “shrunken log2 fold change” value was -0.0274.

As for RRIRKRPPRLPRPRPRPPNSPRP, the “shrunken log2 fold change” value worked out at 0.156.

As for RRIRWRPPRLPRPRPRPQFQPRP, the “shrunken log2 fold change” value was -0.523.

Consider RRIRYRPPRLPRPRPRPKLSPRP, for which the “shrunken log2 fold change” value is -0.204.

Regarding RRIRWRPPRLPRPRPRPMPCPRP, the “shrunken log2 fold change” value was found to be 0.113.

With RRIRRRPPRLPRPRPRPPKKPRP, the “shrunken log2 fold change” value was 1.12.

As to RRIRYRPPRLPRPRPRPSDPPRP, the “shrunken log2 fold change” value is -0.374.

Take RRIRERPPRLPRPRPRPCFAPRP: the “shrunken log2 fold change” value was determined as 0.0529.

With RRIRWRPPRLPRPRPRPTAEPRP, the “shrunken log2 fold change” value amounted to 1.76.

RRIRCRPPRLPRPRPRPPAGPRP: the “shrunken log2 fold change” value came to 0.79.

Take RRIRFRPPRLPRPRPRPGYRPRP: the “shrunken log2 fold change” value was -0.0212.

For the sequence RRIRERPPRLPRPRPRPCLYPRP, the “shrunken log2 fold change” value is -0.489.

As to RRIRCRPPRLPRPRPRPHVNPRP, the “shrunken log2 fold change” value is -0.497.

Regarding RRIRGRPPRLPRPRPRPRYWPRP, the “shrunken log2 fold change” value turned out to be 0.248.

For RRIRIRPPRLPRPRPRPGMTPRP, the “shrunken log2 fold change” value is -0.164.

On to RRIRYRPPRLPRPRPRPTEAPRP, for which the “shrunken log2 fold change” value came to 0.0329.

Turning to RRIRDRPPRLPRPRPRPSTRPRP, the “shrunken log2 fold change” value was 0.152.

Take RRIRSRPPRLPRPRPRPEQQPRP: the “shrunken log2 fold change” value is 0.0303.

On to RRIRNRPPRLPRPRPRPALDPRP, for which the “shrunken log2 fold change” value worked out at 0.113.

For the sequence RRIRTRPPRLPRPRPRPYKEPRP, the “shrunken log2 fold change” value is -0.228.

Values taken from the supplement of paper PMC9112550, “Optimization of the antimicrobial peptide Bac7 by deep mutational scanning” (BMC Biology, 2022).
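Also: peptides expressed intracellularly from a pBAD plasmid library in pooled LB shake-flask culture, induced with 0.3% L-arabinose, DNA abundance read by NGS, three biological replicates, DESeq2 with apeglm shrinkage.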
